# Measurements taken from patent publication US9574185B2, “Cold-adapted protease derived from Pseudoalteromonas arctica PAMC 21717 and uses thereof” (KOREA INSTITUTE OF OCEAN SCIENCE & TECHNOLOGY, priority 2014, dated 2017).
# B1: Subtilisin Carlsberg: commercial protease used as control enzyme (protein, UniProt P00780 106-379, looked up)
# Subtilisin Carlsberg: AQTVPYGIPLIKADKVQAQGFKGANVKVAVLDTGIQASHPDLNVVGGASFVAGEAYNTDGNGHGTHVAGTVAALDNTTGVLGVAPSVSLYAVKVLNSSGSGSYSGIVSGIEWATTNGMDVINMSLGGASGSTAMKQAVDNAYAKGVVVVAAAGNSGSSGNTNTIGYPAKYDSVIAVGAVDSNSNRASFSSVGAELEVMAPGAGVYSTYPTNTYATLNGTSMASPHVAGAAALILSKHPNLSASQVRNRLSSTATYLGSSFYYGKGLINVEAAAQ
# What was measured:
# [1] = test system: W-Pro21717; assay: Activity and stability of W-Pro21717 in the presence of metal ions and surfactants; assay type: biochemical, Pseudoalteromonas arctica PAMC 21717; conditions: 1 mM, on ice for 1 hour
# Protocol: In order to analyze the influence of metal ions and detergents, W-[…] was allowed to react with a standard buffer containing 1 mM BaCl2, CuSO4, MgSO4, CaCl2, ZnSO4, FePO4, KCl, NaCl, […], sodium linear alkylbenzene sulfonate (LAS) or SDS on ice for 1 hour. In addition, the compatibility of W-[…] with a commercial detergent (LG Household & Health Care, Korea; containing subtilisin Carlsberg) was analyzed using skim milk at temperatures of 10° C. or and 30° C.
# [2] = test system: W-Pro21717; assay: Reactions of W-Pro21717 with various protease inhibitors; assay type: biochemical, Pseudoalteromonas arctica PAMC 21717; conditions: for Residual activity (%): residual activity of W-Pro21717, inhibitor 1 mM
# Protocol: The reaction solution was centrifuged, and then filtered through a filter having a pore size of 0.45 μm, and the filtrate was mixed and reacted with Folin & Ciocalteu's phenol solution and 500 mM sodium carbonate solution at 37° C. for 30 minutes. Next, the enzymatic activity of the reaction product was measured at 660 nm based on an L-tyrosine standard curve, and an amino acid production of 1 nmole/min/mg at 25° C. was defined as the activity of 1 unit of protease.
# The kind of W-Pro21717 was analyzed by reactions with various protease inhibitors.
# [3] = test system: azocasein; assay: Stability of R-Pro21717 against temperature and pH; assay type: physicochemical; conditions: 1 hour at varying temperatures, then azocasein 30° C. 30 minutes
# Protocol: (§1) In order to determine a temperature optimal for the activity of the protease, R-Pro21717 was allowed to react at varying temperatures of 0˜70° C., and then analyzed. The stability of R-Pro21717 against temperature was analyzed by allowing R-Pro21717 at varying temperatures of 0˜70° C. for 1 hour, and then allowing R-Pro21717 to react a 0.65% azocasein-containing standard buffer at 30° C. for 30 minutes. As a control enzyme, Carlsberg subtilisin was used.
# (§2) In order to determine a pH optimal for the activity of the protease, R-Pro21717-containing buffers having varying pHs were allowed to react at 30° C., and then analyzed. The stability of R-Pro21717 against pH was analyzed by allowing R-Pro21717-containing buffers having varying pHs to react on ice for 1 hour, and then reacting R-Pro21717 in 0.65% azocasein-containing standard buffer at 30° C. for 30 minutes. Carlsberg subtilisin was used as a control enzyme and analyzed at a reaction temperature of 40° C.
# [4] = Substrate specificity of R-Pro21717, synthetic peptide (oligo molecule) substrates; assay type: biochemical
# Protocol: (§3) The substrate specificity of W-Pro21717 was analyzed using 5 mM of each of the following 7 different synthetic peptides: N-succinyl-Ala-Ala-Val-p-nitroanilide (AAV), N-succinyl-Ala-Ala-Pro-Leu-p-nitroanilide (AAPL), N-succinyl-Ala-Ala-Ala-p-nitroanilide (AAA), N-succinyl-Gly-Gly-Phe-p-nitroanilide (GGF), N-succinyl-Thr-Leu-Val-p-nitroanilide (TLV), N-succinyl-Ala-Ala-Pro-Phe-p-nitroanilide (AAPF), and N-succinyl-Ala-Ala-Val-Ala-p-nitroanilide (AAVA). W-Pro21717 was allowed to react with a standard buffer containing 0.83 mM substrate at 25° C. for 10 minutes, and then the relative activity thereof was measured at 410 nm.
# In this Example, the activity of the R-Pro21717 protease in the presence of synthetic peptide substrates was analyzed.
# [5] = Activity of W-Pro21717 as a function of temperature and pH; assay type: biochemical; conditions: range 0 to 60° C. tested
# Protocol: A temperature optimal for the activity of W-Pro21717 was analyzed in the temperature range of 0 to 60° C., and the optimum pH was analyzed by 1-hour reactions in 50 mM sodium acetate (pH 2.0-6.0), 50 mM potassium phosphate (pH 7.0-10.0) and 50 mM sodium tetraborate (pH 10.0). As a control, 3 μg of the commercial protease Carlsberg subtilisin was used.
# [6] = test system: complex substrates including collagen and keratin; assay: Substrate specificity of R-Pro21717, macro molecule substrates; assay type: biochemical
# [7] = Substrate specificity of W-Pro21717 with synthetic peptides (p-nitroanilides, 410 nm); assay type: biochemical; conditions: 25° C., 10 minutes
# Protocol: as §3
# [8] = test system: azocasein; assay: Activity of R-Pro21717 as a function of temperature and pH; assay type: biochemical
# Protocol: as §1, §2
# [9] = Stability of W-Pro21717 as a function of temperature and pH; assay type: physicochemical; conditions: after a reaction at 40° C. for 1 hour
molecule,measurement,setting,value
O=S(=O)([O-])[O-].[Cu+2] [CuSO4],increase of the activity of W-Pro21717,[1],about 60%
"O=S(=O)([O-])[O-].[Mg+2] [Me, MgSO4]",influence on the activity of W-Pro21717,[1],did not influence
O=C(O)CN(CCN(CC(=O)O)CC(=O)O)CC(=O)O [EDTA],effect of inhibitor on the activity of W-Pro21717,[2],slightly inhibited
same,Residual activity (%),[2],75 ± 9%
CC(=O)N[C@@H](CC(C)C)C(=O)N[C@@H](CC(C)C)C(=O)N[C@H](C=O)CCCNC(=N)N [Leupeptin],Residual activity (%),[2],98 ± 2%
"[Cl-].[K+] [K^+, KCl]",influence on the activity of W-Pro21717,[1],did not influence
Cc1ccc(S(=O)(=O)N[C@@H](CCCCN)C(=O)CCl)cc1 [N^a-p-tosyp-L-lysine chloromethyl ketone],Residual activity (%),[2],137 ± 13%
APMA,Residual activity (%),[2],131 ± 2%
"[Cl-].[Na+] [Na^2+, NaCl]",influence on the activity of W-Pro21717,[1],did not influence
"[Ca+2].[Cl-].[Cl-] [Ca^2+, CaCl2]",influence on the activity of W-Pro21717,[1],did not influence
CCN1C(=O)C=CC1=O [N-Ethylmaleimide],Residual activity (%),[2],107 ± 8%
NC(=O)CI [Iodoacetamide],Residual activity (%),[2],94 ± 3%
"O=P([O-])([O-])[O-].[Fe+3] [Fe^2+, FePO4]",influence on the activity of W-Pro21717,[1],did not influence
"[Ba+2].[Cl-].[Cl-] [Ba^2+, BaCl2]",influence on the activity of W-Pro21717,[1],did not influence
"O=S(=O)([O-])[O-].[Zn+2] [Zn^2+, ZnSO4]",influence on the activity of W-Pro21717,[1],did not influence
sodium linear alkylbenzene sulfonate [LAS],stability of W-Pro21717 in the presence of standard detergent components,[1],sufficient stability
O=S(=O)([O-])[O-].[Na+].[Na+] [Na2SO4],stability of W-Pro21717 in the presence of standard detergent components,[1],sufficient stability
[Cl][Hg][Cl] [HgCl2],effect of inhibitor on the activity of W-Pro21717,[2],inhibited
same,Residual activity (%),[2],23 ± 8%
O=S(=O)(F)Cc1ccccc1 [PMSF],effect of inhibitor on the activity of W-Pro21717,[2],inhibited
same,Residual activity (%),[2],40 ± 8%
B1,temperature at which stability / enzymatic activity decreases,[3],≥ 50 °C
same,Relative activity (%),[4]; substrate AAA,10.2 ± 1.9%
same,Relative activity (%),[4]; substrate AAPF,100%
same,Relative activity (%),[4]; substrate AAPL,57.1 ± 10.1%
same,Relative activity (%),[4]; substrate AAV,7.9 ± 3.9%
same,Relative activity (%),[4]; substrate AAVA,12.9 ± 0.6%
same,Relative activity (%),[4]; substrate GGF,16.2 ± 2.1%
same,Relative activity (%),[4]; substrate TLV,11.9 ± 1.1%
same,temperature optimal for the activity,[5],60 °C
same,Relative activity (%),[6]; substrate Azocasein,100%
same,Relative activity (%),[6]; substrate Collagen,6.7 ± 1.2%
same,Relative activity (%),[6]; substrate Keratin,30.2 ± 5.6%
same,Relative activity (%),[6]; substrate Skim milk,67.7 ± 5.7%
same,Relative activity (%),[7]; substrate AAA,1.5 ± 0.5%
same,Relative activity (%),[7]; substrate AAPF,100%
same,Relative activity (%),[7]; substrate AAPL,66.5 ± 0.1%
same,Relative activity (%),"[7]; substrate AAPL, listed as subtilisin Carlsberg",68.3%
same,Relative activity (%),[7]; substrate AAV,2.6 ± 1.3%
same,Relative activity (%),[7]; substrate AAVA,11.7 ± 2.3%
same,Relative activity (%),[7]; substrate GGF,0%
same,Relative activity (%),[7]; substrate TLV,4.0 ± 3.7%
same,temperature optimal for the activity,[8]; 0˜70° C. tested,60 °C
same,proteolytic activity at low temperature compared to 60° C.,[8]; printed 'at or',did not show proteolytic activity
same,pH optimum and pH stability compared with R-Pro21717,[8]; reaction temperature 40° C.,the same results as those of R-Pro21717
same,decrease in activity,[9],80%
